Test results from article PMC3961690.
“And” between values parts separate entries of the source, which are not always exact repeats. Equal values may be shown once. Read-outs that look alike come from different tables or passages of the source.

Tests used:
Cys69 = Cys69 (UniProt position 69, FGDYKCPSCKV); settings: cited from earlier work
Asp455 = Asp455 (UniProt position 474, KPVMLDLYADW); experiment: NMR; settings: 298 K, isolated domain, folded
Asp26 = Asp26 (UniProt position 26, KLVVVDFSATW); settings: cited from earlier work
Cys32 = Cys32 (UniProt position 32, FSATWCGPCKM); settings: reduced human thioredoxin; cited from earlier work
Cys30 = Cys30 (UniProt position 49, FFSFFCPHCYQ); settings: cited from earlier work
Cys461 = Cys461 (UniProt position 480, LYADWCVACKE); experiment: NMR; settings: 298 K, isolated domain, folded
[1] = not stated, 1 mM protein, oxidised (Cys-461-Cys-464 disulfide)
[2] = oxidised (Cys-461-Cys-464 disulfide)
[3] = not stated, 1 mM protein, reduced (dithiol)

Question: For “Disulfide bond formation protein D (BdbD) (Bacillus subtilis)”, which pKa (Cys69) is on record?
Answer: The pKa was “less than 4.5”.

Question: Which results are given for “DsbD C-terminal domain, Q488A variant (Q488A-cDsbD) (Escherichia coli; Q488A)”?
Answer: pKa (Asp455; [1]): 7.7 and 7.5; pKa (Asp455; [2]): 8.0 ± 0.3

Question: For “Thioredoxin (Trx1), human (Homo sapiens)”, which pKa (Asp26; oxidised human thioredoxin) is on record?
Answer: Its pKa is 8.1.

Question: What about the pKa (Asp26; reduced human thioredoxin) of the same substance?
Answer: The pKa was 9.9.

Question: And the pKa (Cys32)?
Answer: The pKa was 6.3.

Question: For “Thiol:disulfide interchange protein DsbA (Escherichia coli)”, which pKa (Cys30) is on record?
Answer: The pKa was 3.5.

Question: Which pKa (Asp455; [1]) does the source give for “DsbD C-terminal domain, Q488K variant (Q488K-cDsbD) (Escherichia coli; Q488K)” here?
Answer: The pKa was 8.0.

Question: And the pKa (Asp455; [3])?
Answer: Its pKa is 7.2 and 7.1.

Question: What about the pKa (Asp455; [2]) of the same substance?
Answer: The pKa was 8.1 ± 0.2.

Question: And the pKa (Asp455; reduced (dithiol))?
Answer: The pKa was 7.5 ± 0.4.

Question: And the pKa (Cys461; not stated (pH adjusted with 0.1 M DCl or NaOD), 1 mM protein, reduced (Cys-461/Cys-464 dithiol))?
Answer: The pKa was 10.3 and 10.5 and 10.4.

Question: What about the pKa (Cys461; [3]) of the same substance?
Answer: Its pKa is 10.9.

Question: And the pKa (Cys461; reduced (dithiol))?
Answer: Its pKa is 10.5 ± 0.2.
